Source: doi:10.1101/2024.07.25.605091
Where two headings read alike, the source gives them in different places. Blank lines part the entries; values can stand above or below the molecule they belong to.

Tests used:
[1] = target: Macaca mulatta TLR7 extracellular domain (Macaca mulatta); assay: cryo-EM structure
[2] = target: Macaca mulatta TLR7 extracellular domain (Macaca mulatta); assay: cryo-EM structure; remark: listed apart in the source
[3] = target: T1, TLR8 extracellular domain (Homo sapiens, UniProt Q9NR97 27-827); assay: SPR
T1 sequence: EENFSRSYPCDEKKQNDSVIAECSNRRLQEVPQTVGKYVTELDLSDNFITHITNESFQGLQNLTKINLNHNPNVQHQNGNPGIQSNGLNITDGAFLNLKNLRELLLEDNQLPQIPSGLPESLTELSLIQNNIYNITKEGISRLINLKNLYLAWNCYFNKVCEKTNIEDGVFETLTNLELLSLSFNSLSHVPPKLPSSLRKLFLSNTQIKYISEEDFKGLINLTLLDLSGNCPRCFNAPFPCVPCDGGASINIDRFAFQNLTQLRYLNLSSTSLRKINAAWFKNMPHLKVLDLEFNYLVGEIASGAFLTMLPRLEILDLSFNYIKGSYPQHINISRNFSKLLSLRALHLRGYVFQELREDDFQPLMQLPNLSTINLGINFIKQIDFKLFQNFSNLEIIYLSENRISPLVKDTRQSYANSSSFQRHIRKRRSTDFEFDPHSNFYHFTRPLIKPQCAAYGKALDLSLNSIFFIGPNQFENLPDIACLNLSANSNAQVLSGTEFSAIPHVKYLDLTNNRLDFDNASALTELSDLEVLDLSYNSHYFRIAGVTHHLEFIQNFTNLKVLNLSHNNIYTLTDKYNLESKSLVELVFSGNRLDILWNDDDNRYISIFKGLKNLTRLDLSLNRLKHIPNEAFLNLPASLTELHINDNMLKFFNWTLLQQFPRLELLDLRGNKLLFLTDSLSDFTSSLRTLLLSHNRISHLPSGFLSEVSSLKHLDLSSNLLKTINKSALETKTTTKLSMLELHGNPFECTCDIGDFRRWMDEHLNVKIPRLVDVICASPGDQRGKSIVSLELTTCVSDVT

[4] = target: T1, TLR8 extracellular domain; assay: SPR; remark: listed apart in the source

stoichiometry N [1]: 2 | stoichiometry N [2]: 2
Molecule: Macaca mulatta TLR7 extracellular domain (receptor)

Molecule: GCC (XNA, 2'-OMe at G1; DNA C2 and C3; phosphorothioate linkages, stereorandom) [GCC-v4 (mGdCdC)]
Kd [3]: 8 µM

Molecule: GAG (XNA, 2'-OMe at G1 and A2; DNA G3; phosphorothioate linkages, stereorandom) [GAG-v1 (mGmAdG)]
Kd [4]: 4 µM
